According to doi:10.1101/2020.11.14.20231811:

Biological target: SARS-CoV-2 spike S1 subunit (SARS-CoV-2, UniProt P0DTC2 13-685)
Assay: phosphate buffer

B1: CoV2-RBD-1C, MB/thiol-modified (structured_DNA)
DNA: CAGCACCGACCTTGTGCTTTGGGAGTGCTGGTCCAAGGGCGTTAATGGACA
modifications: 5' methylene blue; 3' thiol C3 (ThioMC3-D)
  binding result: binds
